Here are results for 4 molecules from paper PMC3553564.

Common to all, as to test: fluorescence polarization
In general terms: In fluorescence polarisation assays a small probe gives low polarisation when free and higher when bound to something large.

In series [1] the target is PWI R769A+R770A (Homo sapiens, UniProt P49756 734-843, R769A;R770A).
Series [2] has as its target PWI K777A+K778A (Homo sapiens, UniProt P49756 734-843, K777A;K778A).
For series [3], the target named is PWI K734A+R735A+K736A (Homo sapiens, UniProt P49756 734-843, K734A;R735A;K736A).
Series [4] concerns the target RBM25 PWI domain + flanking basic region WT (Homo sapiens, UniProt P49756 734-843).
The target of series [5] is PWI ΔHb (Homo sapiens, UniProt P49756 746-843, del734-745).
The target of series [6] is PWI K837A+K838A (Homo sapiens, UniProt P49756 734-843, K837A;K838A).
For series [7], the target named is PWI H737A+K739A (Homo sapiens, UniProt P49756 734-843, H737A;K739A).
Series [8] has as its target PWI K744A (Homo sapiens, UniProt P49756 734-843, K744A).
Series [9] has as its target PWI K825A+R828A (Homo sapiens, UniProt P49756 734-843, K825A;R828A).

Chain of RBM25 PWI domain + flanking basic region WT (P49756 734-843): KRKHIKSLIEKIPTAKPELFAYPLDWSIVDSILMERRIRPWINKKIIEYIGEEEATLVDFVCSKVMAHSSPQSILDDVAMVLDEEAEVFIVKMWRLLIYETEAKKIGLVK
Chain of PWI ΔHb (P49756 746-843, stated change not applied): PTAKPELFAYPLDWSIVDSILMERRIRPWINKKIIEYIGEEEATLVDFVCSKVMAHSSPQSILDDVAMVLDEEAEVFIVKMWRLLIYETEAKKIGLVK
Chain of PWI H737A+K739A (P49756 734-843 H737A/K739A): as the sequence (P49756 734-843) above, with H4A, K6A counted along it
Chain of PWI K744A (P49756 734-843 K744A): as the sequence (P49756 734-843) above, with K11A counted along it
Chain of PWI K734A+R735A+K736A (P49756 734-843 K734A/R735A/K736A): as the sequence (P49756 734-843) above, with K1A, R2A, K3A counted along it
Chain of PWI K777A+K778A (P49756 734-843 K777A/K778A): as the sequence (P49756 734-843) above, with K44A, K45A counted along it
Chain of PWI R769A+R770A (P49756 734-843 R769A/R770A): as the sequence (P49756 734-843) above, with R36A, R37A counted along it
Chain of PWI K837A+K838A (P49756 734-843 K837A/K838A): as the sequence (P49756 734-843) above, with K104A, K105A counted along it
Chain of PWI K825A+R828A (P49756 734-843 K825A/R828A): as the sequence (P49756 734-843) above, with K92A, R95A counted along it

B1: dsDNA (dsDNA)
DNA 1: CCTTACAGCAAA
DNA 2: TTTGCTGTAAGG
B1: the Kd is around 46 µM in series [1]; around 160 µM in series [2]; around 194 µM in [3]; around 6.7 µM in series [4]; around 40.4 µM in series [6]; around 57 µM in [7]. Also, the Kd in series [8] is around 23.6 µM; in series [9] it was around 106 µM. Moreover, the binding result in series [5] is listed as “no binding”.

B2: dsRNA (dsRNA)
RNA 1: AUCGGGCA
RNA 2: UGCCCGAU
Take B2: the Kd in [4] is around 8.2 µM.

B3: ssDNA (ssDNA)
DNA: CCTTACAGCAAA
In the case of B3, the Kd in series [4] was around 4.4 µM.

B4: ssRNA (ssRNA)
RNA: AUCGGGCA
B4: the Kd in series [1] worked out at 32.1 ± 1.4 µM; in [2], 156 ± 29.4 µM; in series [3], 183 ± 44.7 µM; in [4], 11.3 ± 1 µM; in [6], 15.7 ± 2.1 µM; in series [7], 61.6 ± 9.3 µM. In addition, the equilibrium dissociation constant (Kd) in series [8] is 19.9 ± 4.4 µM; in series [9], 106 ± 17.3 µM. Moreover, in [5], the binding result is given as “no binding”.

Broadly, the Kd is the concentration at which binding is half-saturated.
